Test results taken from patent US11278600B2, “Human alpha-galactosidase variants” (Codexis, Inc., priority 2014, dated 2022).
Positions count from the first letter of the chain named.

B1: 335 (protein)
chain: LDNGLARTPTMGWLHWERFMCNLDCQEEPDSCISEKLFMEMAERMVSEGWKDAGYEYLCIDDCWMAPQRDSEGRLQADPQRFPHGIRQLANYVHSKGLKLGIYADVGNKTCAGFPGSFGYYDIDAQTFADWGVDLLKFDGCYCDSLENLADGYKHMSLALNRTGRSIVYSCEWPLYMWPFQKPNYTEIRQYCNHWRNFADIDDSWASIKSILDWTSFNQERIVDVAGPGGWNDPDMLVIGNFGLSWDQQVTQMALWAIMAAPLFMSNDLRHISPQAKALLQDKDVIAINQDPLGKQGYQLRQGDNFEVWERPLSGDAWAVAIINRQEIGGPRSYTIAVASLGGGVACNPGCFITQLLPVKRQLGFYNWSSRLKSHINPTGTVLLQLENTMQMSLKDLL
modifications: Synthetic Polypeptide sequence of Variant No. 335 of mature Human GLA
B2: 341 (protein)
chain: B1 chain with K96I, F217R, D316L, G343K, G350A, Q362K
modifications: Synthetic Polypeptide sequence of Variant No. 341 of mature Human GLA
B3: 342 (protein)
chain: B1 chain with K96I, F217R, Q302K, A337P, G343K, G350A, Q362K, S369T
modifications: Synthetic Polypeptide sequence of Variant No. 342 of mature Human GLA
B4: 338 (protein)
chain: B1 chain with K96I, F217R, D316L, G343K, S369T
modifications: Synthetic Polypeptide sequence of Variant No. 338 of mature Human GLA
B5: 344 (protein)
chain: B1 chain with K96I, F217R, Q302K, D316L, G343K, G350A, S369T
modifications: Synthetic Polypeptide sequence of Variant No. 344 of mature Human GLA
B6: 339 (protein)
chain: B1 chain with K96I, F217R, D316L, G343K, S369T
modifications: Synthetic Polypeptide sequence of Variant No. 339 of mature Human GLA
B7: 336 (protein)
chain: B1 chain with Q302K, D316L, G343K, Q362K
modifications: Synthetic Polypeptide sequence of Variant No. 336 of mature Human GLA
B8: 343 (protein)
chain: B1 chain with K96I, F217R, Q302K, D316L, G343K, G350A, Q362K
modifications: Synthetic Polypeptide sequence of Variant No. 343 of mature Human GLA
B9: 337 (protein)
chain: B1 chain with Q302K, D316L, G343D, G350A, Q362K, S369T
modifications: Synthetic Polypeptide sequence of Variant No. 337 of mature Human GLA
B10: 340 (protein)
chain: B1 chain with K96I, F217R, D316L, G343K
modifications: Synthetic Polypeptide sequence of Variant No. 340 of mature Human GLA
B11: 345 (protein)
chain: LDNGLARTPTMGWLHWERFMCNLDCQEEPDSCISEKLFMEMAERMVSEGWKDAGYEYLCIDDCWMAPQRDSEGRLQADPQRFPHGIRQLANYVHSIGLKLGIYADVGNKTCAGFPGSFGYYDIDAQTFADWGVDLLKFDGCYCDSLENLADGYKHMSLALNRTGRSIVYSCEWPLYMWPFQKPNYTEIRQYCNHWRNFADIDDSWASIKSILDWTSRNPERIVDVAGPGGWNDPDMLVIGNFGLSWDQQVTQKALWAIMAAPLFMFNDLRHISPQAKALLQDKEVIAINPDPFGKQGYQLRKGDNFEGWERPLFGLAWAVAIINRQEIGGPRSYTIPVASLGEGVACNPACFITQLLPVKRKLGFYNWTSRLKSHINPTGTVLLQLENTMQMSLKDLL
modifications: Synthetic Polypeptide sequence of Variant No. 345 of mature Human GLA

Assay: HTP-analysis of yeast culture supernatants, no challenge (MUGal hydrolysis)
Type: biochemical
Conditions: activity of the variant/activity of Rd3BB (SEQ ID NO: 13), yeast culture supernatant
Procedure, shortened: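 Activity read as 4-methylumbelliferyl α-D-galactopyranoside hydrolysis: fluorescence (355/448 nm) after sodium carbonate stop, following 30-180 min at 37° C with 2 mM MUGal stock at pH 4.6–4.8. Enzyme source is unchallenged culture supernatant of INVSc1 yeast expressing GLA variants, grown 66-84 h at 30° C.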
With B1 the “Relative Activity of GLA Variants After No Challenge (NC)” value was “++ (++ = >1.5 to 2.5 relative activity over Rd3BB (SEQ ID NO: 13))”. For B2, the “Relative Activity of GLA Variants After No Challenge (NC)” value was “− (− = <0.5 relative activity to Rd3BB (SEQ ID NO: 13))”. With B3 the “Relative Activity of GLA Variants After No Challenge (NC)” value was “++ (++ = >1.5 to 2.5 relative activity over Rd3BB (SEQ ID NO: 13))”. In the case of B4, the “Relative Activity of GLA Variants After No Challenge (NC)” value is reported as “++ (++ = >1.5 to 2.5 relative activity over Rd3BB (SEQ ID NO: 13))”. In the case of B5, the “Relative Activity of GLA Variants After No Challenge (NC)” value is reported as “+ (+ = 0.5 to 1.5 relative activity over Rd3BB (SEQ ID NO: 13))”. In the case of B6, the “Relative Activity of GLA Variants After No Challenge (NC)” value is reported as “+ (+ = 0.5 to 1.5 relative activity over Rd3BB (SEQ ID NO: 13))”. In the case of B7, the “Relative Activity of GLA Variants After No Challenge (NC)” value is reported as “+ (+ = 0.5 to 1.5 relative activity over Rd3BB (SEQ ID NO: 13))”. In the case of B8, the “Relative Activity of GLA Variants After No Challenge (NC)” value is reported as “+ (+ = 0.5 to 1.5 relative activity over Rd3BB (SEQ ID NO: 13))”. In the case of B9, the “Relative Activity of GLA Variants After No Challenge (NC)” value is reported as “+ (+ = 0.5 to 1.5 relative activity over Rd3BB (SEQ ID NO: 13))”. For B10, the “Relative Activity of GLA Variants After No Challenge (NC)” value was “+ (+ = 0.5 to 1.5 relative activity over Rd3BB (SEQ ID NO: 13))”. In the case of B11, the “Relative Activity of GLA Variants After No Challenge (NC)” value is reported as “+ (+ = 0.5 to 1.5 relative activity over Rd3BB (SEQ ID NO: 13))”.

Assay: HTP-analysis of supernatants pretreated with bovine serum (MUGal hydrolysis)
Type: biochemical
Conditions: activity of the variant/activity of Rd3BB (SEQ ID NO: 13), yeast culture supernatant
Procedure, shortened: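 Yeast INVSc1 culture supernatants containing secreted GLA variants were mixed with bovine serum (20:80) and held 1 h at 37° C. Serum-treated samples then reacted with MUGal (4 mM stock) in citrate/McIlvaine buffer (pH 4.3/4.8) for 180 min at 37° C., were quenched with sodium carbonate, and read by fluorescence (Ex 355, Em 448 nm).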
With B1 the “Relative Activity of GLA Variants After Challenge with Serum” value (“Relative Activity … with Serum” below) was “+++ (+++ = >2.5 relative activity over Rd3BB (SEQ ID NO: 13))”. With B2 the “Relative Activity … with Serum” value was “+ (+ = 0.5 to 1.5 relative activity over Rd3BB (SEQ ID NO: 13))”. With B3 the “Relative Activity … with Serum” value was “+++ (+++ = >2.5 relative activity over Rd3BB (SEQ ID NO: 13))”. With B4 the “Relative Activity … with Serum” value was “+++ (+++ = >2.5 relative activity over Rd3BB (SEQ ID NO: 13))”. With B5 the “Relative Activity … with Serum” value was “++ (++ = >1.5 to 2.5 relative activity over Rd3BB (SEQ ID NO: 13))”. In the case of B6, the “Relative Activity … with Serum” value is reported as “+ (+ = 0.5 to 1.5 relative activity over Rd3BB (SEQ ID NO: 13))”. With B7 the “Relative Activity … with Serum” value was “− (− = <0.5 relative activity to Rd3BB (SEQ ID NO: 13))”. For B8, the “Relative Activity … with Serum” value was “+ (+ = 0.5 to 1.5 relative activity over Rd3BB (SEQ ID NO: 13))”. With B9 the “Relative Activity … with Serum” value was “++ (++ = >1.5 to 2.5 relative activity over Rd3BB (SEQ ID NO: 13))”. In the case of B10, the “Relative Activity … with Serum” value is reported as “+ (+ = 0.5 to 1.5 relative activity over Rd3BB (SEQ ID NO: 13))”. For B11, the “Relative Activity … with Serum” value was “+ (+ = 0.5 to 1.5 relative activity over Rd3BB (SEQ ID NO: 13))”.

Assay: HTP-analysis of supernatants pretreated with base (MUGal hydrolysis)
Type: biochemical
Conditions: challenge at pH 8.2; activity of the variant/activity of Rd3BB (SEQ ID NO: 13); yeast culture supernatant
Procedure, shortened: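 GLA variants were secreted by transformed INVSc1 yeast grown 66-84 h at 30° C. Supernatants were exposed to neutral-to-basic buffers (pH 7.0-9.7) at 37° C for 1-18 h, then assayed with MUGal in acidic citrate/McIlvaine buffer, with fluorescence read after quenching.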
For B1, the “Relative Activity of GLA Variants After Challenge at pH 8.2” value (from here on “Relative Activity … at pH 8.2”) was “+++ (+++ = >2.5 relative activity over Rd3BB (SEQ ID NO: 13))”. With B2 the “Relative Activity … at pH 8.2” value was “+ (+ = 0.5 to 1.5 relative activity over Rd3BB (SEQ ID NO: 13))”. For B3, the “Relative Activity … at pH 8.2” value was “+++ (+++ = >2.5 relative activity over Rd3BB (SEQ ID NO: 13))”. For B4, the “Relative Activity … at pH 8.2” value was “+++ (+++ = >2.5 relative activity over Rd3BB (SEQ ID NO: 13))”. In the case of B5, the “Relative Activity … at pH 8.2” value is reported as “+ (+ = 0.5 to 1.5 relative activity over Rd3BB (SEQ ID NO: 13))”. In the case of B6, the “Relative Activity … at pH 8.2” value is reported as “++ (++ = >1.5 to 2.5 relative activity over Rd3BB (SEQ ID NO: 13))”. For B7, the “Relative Activity … at pH 8.2” value was “+ (+ = 0.5 to 1.5 relative activity over Rd3BB (SEQ ID NO: 13))”. For B8, the “Relative Activity … at pH 8.2” value was “+ (+ = 0.5 to 1.5 relative activity over Rd3BB (SEQ ID NO: 13))”. With B9 the “Relative Activity … at pH 8.2” value was “++ (++ = >1.5 to 2.5 relative activity over Rd3BB (SEQ ID NO: 13))”. In the case of B10, the “Relative Activity … at pH 8.2” value is reported as “+ (+ = 0.5 to 1.5 relative activity over Rd3BB (SEQ ID NO: 13))”. In the case of B11, the “Relative Activity … at pH 8.2” value is reported as “+++ (+++ = >2.5 relative activity over Rd3BB (SEQ ID NO: 13))”.

Assay: HTP-analysis of supernatants pretreated with acid (MUGal hydrolysis)
Type: biochemical
Conditions: challenge at pH 4.0; activity of the variant/activity of Rd3BB (SEQ ID NO: 13); yeast culture supernatant
Procedure, shortened: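 MUGal hydrolysis was tracked by fluorescence (Ex 355 nm, Em 448 nm) after a 30-180 min reaction at 37° C. in pH 4.8 McIlvaine/citrate buffer, stopped with 1 M sodium carbonate. Beforehand, yeast (INVSc1) culture supernatants carrying GLA variants were held 1-3 h at 37° C. in acidic McIlvaine buffer, pH 3.3-4.3.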
In the case of B1, the “Relative Activity of GLA Variants After Challenge at pH 4.0” value (from here on “Relative Activity … at pH 4.0”) is reported as “+++ (+++ = >2.5 relative activity over Rd3BB (SEQ ID NO: 13))”. For B2, the “Relative Activity … at pH 4.0” value was “+ (+ = 0.5 to 1.5 relative activity over Rd3BB (SEQ ID NO: 13))”. With B3 the “Relative Activity … at pH 4.0” value was “+++ (+++ = >2.5 relative activity over Rd3BB (SEQ ID NO: 13))”. In the case of B4, the “Relative Activity … at pH 4.0” value is reported as “+++ (+++ = >2.5 relative activity over Rd3BB (SEQ ID NO: 13))”. With B5 the “Relative Activity … at pH 4.0” value was “+ (+ = 0.5 to 1.5 relative activity over Rd3BB (SEQ ID NO: 13))”. With B6 the “Relative Activity … at pH 4.0” value was “+ (+ = 0.5 to 1.5 relative activity over Rd3BB (SEQ ID NO: 13))”. With B7 the “Relative Activity … at pH 4.0” value was “+ (+ = 0.5 to 1.5 relative activity over Rd3BB (SEQ ID NO: 13))”. In the case of B8, the “Relative Activity … at pH 4.0” value is reported as “+ (+ = 0.5 to 1.5 relative activity over Rd3BB (SEQ ID NO: 13))”. With B9 the “Relative Activity … at pH 4.0” value was “++ (++ = >1.5 to 2.5 relative activity over Rd3BB (SEQ ID NO: 13))”. In the case of B10, the “Relative Activity … at pH 4.0” value is reported as “+ (+ = 0.5 to 1.5 relative activity over Rd3BB (SEQ ID NO: 13))”. In the case of B11, the “Relative Activity … at pH 4.0” value is reported as “++ (++ = >1.5 to 2.5 relative activity over Rd3BB (SEQ ID NO: 13))”.
